Assay results reported in publication PMC12527946, “Structural analyses define the molecular basis of clusterin chaperone function” (Nature Structural & Molecular Biology, 2025).

B1: receptor-associated protein (RAP) (natural protein, UniProt P30533 36-357, looked up)
chain: SREKNQPKPSPKRESGEEFRMEKLNQLWEKAQRLHLPPVRLAELHADLKIQERDELAWKKLKLDGLDEDGEKEARLIRNLNVILAKYGLDGKKDARQVTSNSLSGTQEDGLDDPRLEKLWHKAKTSGKFSGEELDKLWREFLHHKEKVHEYNVLLETLSRTEEIHENVISPSDLSDIKGSVLHSRHTELKEKLRSINQGLDRLRRVSHQGYSTEAEFEEPRVIDLWDLAQSANLTDKELEAFREELKHFEAKIEKHNHYQKQLEIAHEKLRHAESVGDGERVSRSREKHALLEGRTKELGYTVKKHLQDLSGRISRARHNEL
notes: LRPAP1 from plasmid pQTEV-LRPAP1; the signal peptide (amino acids 1–35) was removed; Purification is told in the Supplementary Information; also called LRPAP1; low density lipoprotein receptor-related protein-associated protein 1
B2: denatured bovine rhodanese (D-Rho) (enzyme, UniProt P00586 1-297, looked up)
chain: MVHQVLYRALVSTKWLAESVRAGKVGPGLRVLDASWYSPGTREARKEYLERHVPGASFFDIEECRDKASPYEVMLPSEAGFADYVGSLGISNDTHVVVYDGDDLGSFYAPRVWWMFRVFGHRTVSVLNGGFRNWLKEGHPVTSEPSRPEPAIFKATLNRSLLKTYEQVLENLESKRFQLVDSRAQGRYLGTQPEPDAVGLDSGHIRGSVNMPFMNFLTEDGFEKSPEELRAMFEAKKVDLTKPLIATCRKGVTACHIALAAYLCGKPDVAIYDGSWFEWFHRAPPETWVSQGKGGKA
notes: rhodanese (33 kDa), bovine; Denatured in 6 M guanidinium–HCl and 5 mM DTT and diluted 120-fold into buffer; non-native, forms oligomers and aggregates
B3: wild-type human clusterin (WT Clu) (natural protein)
chain 1: DQTVSDNELQEMSNQGSKYVNKEIQNAVNGVKQIKTLIEKTNEERKTLLSNLEEAKKKKEDALNETRESETKLKELPGVCNETMMALWEECKPCLKQTCMKFYARVCRSGSGLVGRQLEEFLNQSSPFYFWMNGDRIDSLLENDRQQTHMLDVMQDHFSRASSIIDELFQDRFFTREPQDTYHYLPFSLPHRRPHFFFPKSRIVR
chain 2: SLMPFSPYEPLNFHAMFQPFLEMIHEAQQAMDIHFHSPAFQHPPTEFIREGDDDRTVCREIRHNSTGCLRMKDQCDKCREILSVDCSTNNPSQAKLRRELDESLQVAERLTRKYNELLKSYQWKMLNTSSLLEQLNEQFNWVSRLANLTQGEDQYYLRVTTVASHTSDSDVPSGVTEVVVKLFDSDPITVTVPVEVSRKNPKFMETVAEKALQEYRKKHREE
modifications: N-glycans (six in the whole protein); five disulfide bonds to the α-chain | N-glycans (six in the whole protein); five disulfide bonds to the β-chain
notes: clusterin β-chain, human, residues 23–227 of the precursor; clusterin α-chain, human, residues 228–449 of the precursor; Almost completely processed by furin into β- and α-chain, which stay disulfide-linked; In the flotation assay it stood in DMPC nanodiscs (Clu–DMPC); also called apolipoprotein J; ApoJ

Columns and labels:
[1] = molecular target: VLDLR(28–797)Δ(751–779)-C-tag (VLDLR ectodomain) (human, UniProt P98155-2 28-797, Δ(751–779), Secreted from HEK293E, glycosylated, Ca2+-bound LDLR repeats, disulfides; C-terminal C-tag left out. Deletion 751-779 taken as printed, in the numbering of the long isoform); assay: ELISA; plate coated with 10 µg/ml VLDLR-ed; Clu or RAP in TBS-C pH 7.4, 2 mM CaCl2, 2% BSA, 0.05% Tween-20, 1 h at room temperature; background binding to BSA subtracted; one-site specific binding fit; details: both partners purified
[2] = molecular target: B3; assay: SEC; D-Rho diluted into PBS to 0.5 μM with 1.5 μM WT Clu, 30 min at 25 °C; soluble fraction on Superose-6, fractions by SDS-PAGE and immunoblotting against Rho and Clu; details: both partners purified
[3] = molecular target: VLDLR(28–797)Δ(751–779)-C-tag (VLDLR ectodomain) (human, UniProt P98155-2 28-797, Δ(751–779)); assay: ELISA; plate coated with 10 µg/ml VLDLR-ed; Clu or RAP in TBS-C pH 7.4, 2 mM CaCl2, 2% BSA, 0.05% Tween-20, 1 h at room temperature; background binding to BSA subtracted; one-site specific binding fit; details: both partners purified
[4] = molecular target: the molecule itself; assay: SEC; 10 μM Clu in 20 mM MES-NaOH pH 6.5, HEPES-NaOH pH 7.5 or Tris-HCl pH 8.5, 100 mM NaCl, 1 mM EDTA, overnight or longer on ice; Superdex-200 Increase 3.2/300 at room temperature; monomers and dimers

Binder: B1
Kd [1]: ~1.2 nM

Binder: B2
binding result [2]: binds

Binder: B3
Kd [3]: ~80 nM
stoichiometry N [4]: 2
